Assay results reported in publication PMC5548392.

Target: RAB21 (UniProt P35282)
Test: GST pull-down with purified proteins
Settings: reference: RPH3A incubated with PKN1 without ATP; sites S234,S271

binding against the reference: stronger
Substance: RPH3A (Rabphilin 3A) (from UniProt P47708) RPH3A incubated with PKN1 and ATP
